Results as given in the supplement of paper PMC9170038.

Test system: MS2 coat protein
Assay: apparent KD of MS2 coat protein; higher = weaker reporter binding
Conditions: Eterna round: R107
In short: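 On-chip transcription from Illumina sequencing clusters produced the designed RNA switches. These were titrated with SNAP-549-labelled MS2 coat protein (twofold steps, 0.7 or 1.5 nM to 3 µM) in 100 mM Tris-HCl pH 7.5, 80 mM KCl, 4 mM MgCl2, with or without constant ligand. The apparent KD given is the per-design median of normalised cluster binding-curve fits.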

[1] = input ligand: theophylline 20 uM
[2] = input ligand: theophylline 2 mM
[3] = input ligand: tryptophan 2.4 mM

Row | Sequence | apparent KD of MS2 coat protein (input ligand: arginine 13.2 mM) | apparent KD of MS2 coat protein [1] | apparent KD of MS2 coat protein [2] | apparent KD of MS2 coat protein (input ligand: none) | apparent KD of MS2 coat protein [3]
1 | AGUUAUUCGAACAUGGUUGACGAGUGGCAACGAGGACCGGUACGGCCGCCACUCGAAUAAACAUGAGGAUCACCCAUGUACAAAU [T''-M'-T'-T-MS2 - Design 10] | 72.1 nM | 264 nM | 442 nM |  | 
2 | AUAAAUAAGGCGGCCGCCACUAAUAUAUUAAUAUUUUAUAUCCGACAUGAGGAUCACCCAUGUGGUAGGACCGGGCCAAUAAUUA [Same State - Tryptophan B] | 20.4 nM | 43.4 nM | 25 nM |  | 
3 | AUAAAUAAUAAAUAAAAUAAAGUGGGUGAACGAGGACCGGUACGGCCGCCACUCGGACAUGAGGAUCACCCAUGUCCAUGUGAAA [AstrosExyTry#1] | 13.1 nM | 22.4 nM | 19.2 nM |  | 
4 | AUAACAUGAGGAUCACCCAUGUAAGCUGAAGGAGCGCUGGAAACAGCAGGUAGGUCGCAGCAUGUUUCCACAUGGGUAGGAAACU [(M1)-(M2)-(Arg1)-(Arg2)-(A)'-(M)'-(A)''_Design8] | 42.4 nM | 86.2 nM | 123 nM | 80 nM | 49.5 nM
5 | AUAACAUGAGGAUCACCCAUGUAAGCUGAAGGAGCGGACGAAAGUCCAGGUAGGUCGCAGCGUUCCUUCACCUCAUGAGAAGGAG [SSArg-A #30 with U all better] | 17.8 nM | 37.5 nM | 24 nM | 22.5 nM | 21.6 nM
6 | AUAACAUGAGGAUCACCCAUGUAAGGUGAUACCAGACGAAGUAAAGUCCCUUGGCAGCACAAGCAUAGUUGCGAAUAUUGAUAGA [JR_SSTheophyA_Sub005] | 264 nM | 532 nM |  |  | 632 nM
7 | AUAACAUGAGGAUCACCCAUGUUGAGUGAUACCAGACUAUGUAAUGUCCCUUGGCAGCACAAGUAAAGUUAUAAAUAAUGAUAGA [#12 SameState-TheophyllineA] | 48.2 nM | 55.1 nM |  |  | 47.2 nM
8 | AUAACUGUCAAGGAAGGUGAUCCAGCAGAUACCAGCUAGGAAACUAGCCCUUGGCAGCUGCAACAUGAGGAUCACCCAUGUAAUA [(T)'-(M)'-(T1)-(T2)-(M1)-(M2)_Design9] | 61 nM | 135 nM |  |  | 59.3 nM
9 | AUAAGUAAUGUCUCGUGUAUUAUUACAGAUACCAGACUAUCCUAUGUCCCUUGGCAGCUGGAUUACAUGAGGAUCACCCAUGUUG [#10 Exclusion-TheophyllineA] | 21.5 nM | 25.3 nM |  |  | 22 nM
10 | AUAAGUAUGUUUUCGUGUUUUAUUACAGAUACCAGACUAUACGUUGUCCCUUGGCAGCUGGAUUACAUGAGGAUCACCCAUGUUG [#26 Exclusion-TheophyllineA] | 19.9 nM | 32 nM |  |  | 23.1 nM
11 | AUAAUAAGGUGAUCCUAAGUCGUACCGUAACGAGGACCGGUACGGCCGCCACUCGAACAUGAGGAUCACCCAUGUAUGUACGACA [M'-T'-T-MS2-T'' - Design 6] | 28.1 nM | 96.1 nM | 170 nM | 56.1 nM | 75.9 nM
12 | AUAAUGGGUUUCGGACUAUCAUGGAAUGAUACCAGAUACUUAGAAAUCCCUUGGCAGCAUGAGGACAUGAGGAUCACCCAUGUAU [Th A Ex t1] | 41.9 nM | 78.9 nM |  |  | 71.4 nM
13 | AUACAUGAGGAUCACCCAUGUAUAGAUGAAGGAGCGACCAGAGGGUCAGGUAGGUCGCAUCACAUGAGGAUCACCCAUGUAUUUU [DOUBLE!!! :-D #10] | 41.9 nM | 67.8 nM | 64.4 nM | 64 nM | 43.7 nM
14 | AUACAUGAGGAUCACCCAUGUCAUACAGAAGGAGCGUCACAUAAGACAGGUAGGUCGCUGAUAAAUGGAUUAUAGUUUAUGAUUA [JR_SSArginiA_Sub016] | 17.5 nM | 29.6 nM | 20.3 nM | 18.6 nM | 18.7 nM
15 | AUACAUGAGGAUCACCCAUGUGAUGGCCGGCGAGGACCGGUACGGCCGCCACUCGUGAUCCGUCCUGAAAGCAAAGCUCUCAACA [Esraleri] | 95 nM | 85.3 nM | 303 nM |  | 
16 | AUACAUGAGGAUCACCCAUGUUAUAGUGAAGGAGCGACAUUUAGGUCAGGUAGGUCGCACUAUAGUAUUAUAAUUCUUAGUUCUU [JR_ExcArginiA_Sub018] | 14.7 nM | 27.9 nM | 21.8 nM | 18.4 nM | 22 nM
17 | AUACAUGAGGAUCACCCAUGUUAUAGUGAAGGAGCGACGUUUAUGUCAGGUAGGUCGCACUGUUGUUUAAUGAUUCUUGGAUCUU [#21 Exclusion - Arginine A] | 15.3 nM | 22.5 nM | 13.5 nM | 13.2 nM | 16.4 nM
18 | AUAUAUACAUGAGGAUCACCCAUGUUAUUUCGAGGACCGGUACGGCCGCCACUCGAUAGAGUAGAAGUAACAUUUGUUAGAUGUA [JR_SSTryptoA_Sub011] | 19.7 nM | 28.3 nM | 22 nM |  | 
19 | AUAUAUAUGCGAAGGAGCGGGAAAUAUAUAUAUAUAAUCCUAACAUGAGGAUCACCCAUGUCCCAGGUAGGUCGCGCAUAUAUAU [12.A] | 68.2 nM | 88.5 nM | 87 nM | 74 nM | 72.2 nM

Row | Sequence | apparent KD of MS2 coat protein (input ligand: arginine 13.2 mM) | apparent KD of MS2 coat protein [1] | apparent KD of MS2 coat protein [2] | apparent KD of MS2 coat protein (input ligand: none) | apparent KD of MS2 coat protein [3]
20 | AUAUGAUCAUGUGAUACCAGAAAUGGUAGUCUUCACUGGAUUACAUGAGGAUCACCCAUGUUCCCUUGGCAGCAUAUGAUCAUAU [#03 Exclusion-TheophyllineB] | 31.7 nM | 68.2 nM |  |  | 43.9 nM
21 | AUAUUUAACGGAAGGAGCGCGGAAUAAUAAGUGGGUAAACAUGAGGAUCACCCAUGUAAACCGCAGGUAGGUCGCCGAAUAAUAA [AstrosEXyARgB#4] | 71 nM | 115 nM | 86.1 nM | 89.4 nM | 68.4 nM
22 | AUAUUUAAUGGAAGGAGCGCGGAUAAUAAAGUGGGUAAACAUGAGGAUCACCCAUGUAAACCGCAGGUAGGUCGCCGAAAUAUAU [AstrosEXyARgB#8] | 56.6 nM | 49.4 nM | 57.6 nM | 39 nM | 47 nM
23 | AUCACUGUGAAAGAUACCAGCGCCCUACCUAUCUUCUGUUACAUGAGGAUCACCCAUGUUCGCCCUUGGCAGCUUGAGAUGGAUC [theeternabot_exclusion_MS2_Theo_B_11] | 44.2 nM | 75.1 nM |  |  | 44.9 nM
24 | AUCAUGGCCAUCGAUACCAGCUACAUGAGGAUCACCCAUGUAAACGGCCCGGUGAGAUGUAGCCCUUGGCAGCGAAGGGUCGAGG [Inenenatti] | 14 nM | 24.3 nM | 72.3 nM | 18.6 nM | 14.6 nM
25 | AUCCACAGCCGAAGGAGCGCUAUAGGAUGACAUGAGGAUCACCCAUGUGUGUGAUGUGGAUAGCAGGUAGGUCGCGGAGUGGAUU [Exclusion - Arginine B (Freestyle 10)] | 73 nM | 92.5 nM | 29.1 nM | 29.5 nM | 26.3 nM
26 | AUCGUACCUGAGGAUACCAGCAUGUGAUCAUAACAUGAGGAUCACCCAUGUAAUCAGUGAUGCCCUUGGCAGCUUGGUCGGUACA [Same State - Theophylline B (Freestyle 10)] | 34.8 nM | 74.3 nM |  |  | 44.2 nM
27 | AUCGUACCUGAUGAUACCAGCAAGUGAUCAUAACAUGAGGAUCACCCAUGUAAUCAGUGAUGCCCUUGGCAGCAUAGUCGAUACA [Same State - Theophylline B (Freestyle 5)] | 77.8 nM | 199 nM |  |  | 166 nM
28 | AUCGUACCUGAUGAUACCAGCAUGUGAUCGUAACAUGAGGAUCACCCAUGUAAUCAGUGAUGCCCUUGGCAGCAUGAUCGGUACA [Same State - Theophylline B (Freestyle 14)] | 79.2 nM | 127 nM |  |  | 94.9 nM
29 | AUCGUACCUGAUGAUACCAGCAUGUGCUCGUAACAUGAGGAUCACCCAUGUGAUCAGUGAUGCCCUUGGCAGCAUGAUCGGUACA [Same State - Theophylline B (Freestyle 16)] | 67 nM | 49.2 nM | 14.1 nM | 66 nM | 61.2 nM
30 | AUCGUACCUGGUGAUACCAGCAAUUGCUCGUGACAUGAGGAUCACCCAUGUGACCAGUGAUGCCCUUGGCAGCAUGGUCGGUGCA [Same State - Theophylline B (Freestyle 23)] | 36.8 nM | 65.3 nM |  |  | 61.2 nM
31 | AUCUCAUAGAGUGAUACCAGACUACAUGAGGAUCACCCAUGUUACAUUUAAAUAUCAUUUGUCCCUUGGCAGCACAUUAAGUACA [JR_Nu_ExcTheophyB_Sub019] | 25.6 nM | 33.2 nM |  |  | 23.4 nM
32 | AUCUCAUAGAGUGAUACCAGACUACAUGAGGAUCACCCAUGUUAGAUUUAAAUAUCAUUUGUCCCUUGGCAGCACAUUAAGUACA [JR_Nu_SSTheophyB_Sub021] | 14.2 nM | 14.8 nM |  |  | 12.7 nM
33 | AUGCAUAUCAGAAGGAGCGUCAUUAACAUGAGGAUCACCCAUGUAACAUUGAAUUCGAUGAGACAGGUAGGUCGCUGAAUAGUAA [SS-ArgB26] | 26.6 nM | 44.9 nM | 37.9 nM | 35.6 nM | 31.1 nM
34 | AUGCCUAGUGGAAGGAGCGAGGGUCUUCUCAACAUGAGGAUCACCCAUGUUCUUUUACACCCUCAGGUAGGUCGCCAUUGGGACA [Biraanve] | 25.1 nM | 85.2 nM | 44.6 nM | 55 nM | 61.2 nM
35 | AUGCGGUGCGGAAGGAGCGAGUUUGCCUAUUACAUGAGGAUCACCCAUGUGGGUAAUGGGACUCAGGUAGGUCGCCGUUGUCGCA [Same State Arginine B GF 28] | 41.9 nM | 77.9 nM | 65.1 nM | 57.5 nM | 50.1 nM
36 | AUGGUCGACGAUCUGCGAAAAGCAGAUCGACGAGGACCGGUACGGCCGCCACUCGUGUUCAUUAAACAUGAGGAUCACCCAUGUA [#15Tryptophan A Same State] | 41 nM | 68.7 nM | 70.2 nM |  | 
37 | AUGGUUGUCGCGGCCGCCACUGUCGGCCGCCACUAAACAUGAGGAUCACCCAUGUAGGACCGGGACAGGACCGGGUGAUAACCAC [TryBS - #DoubleAptamer 3] | 24.1 nM | 33.9 nM | 33.2 nM | 25.9 nM | 14.3 nM
